According to patent publication US20170058042A1 (Genentech, published 2017):
Substitutions are numbered along the chain they refer to.

T1: human Ly6E (native, in human tumor cells, xenograft tumors and human tissues) (human, UniProt Q16553 21-101)
T1 sequence: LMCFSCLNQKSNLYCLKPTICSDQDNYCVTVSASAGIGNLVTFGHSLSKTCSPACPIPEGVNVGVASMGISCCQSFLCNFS

T2: cynomolgus monkey Ly6E (native, in cynomolgus monkey tissues) (cynomolgus monkey, UniProt Q16553 21-101 (human entry))
T2 construct: Endogenous protein in normal cynomolgus monkey tissue sections (IHC); also called cyno Ly6E
T2 chain: T1 sequence with A33T, I57L, V61I

B1: humanized anti-Ly6E (hu9B12 v12) ADC (MC-vc-PAB-MMAE) (antibody, V domains shown)
VH: EVQLVESGPALVKPTQTLTLTCTVSGFSLTGYSVNWIRQPPGKALEWLGMIWGDGSTDYNSALKSRLTISKDTSKNQVVLTMTNMDPVDTATYYCARDYYFNYASWFAYWGQGTLVTVSS
VL: DIQMTQSPSSLSASVGDRVTITCSASQGISNYLNWYQQKPGKTVKLLIYYTSNLHSGVPSRFSGSGSGTDYTLTISSLQPEDFATYYCQQYSELPWTFGQGTKVEIK
B2: rabbit anti-Ly6E antibody clone GEN-93-8-1 (antibody, V domains shown)
VH: QSVEESGGRLVTPGTPLTLTCATSGFSLSIYDMTWVRQAPGKGLEWIGVIYTSGGAYYANWAKGRFTISRTSTTVDLRMTSPTTEDTATYFCVRNWAHGSDLWGQGTLVTVSS
VL: DPVVTQTPSSASAAVGGTVSISCQSSQSVYNNNYLGWYQQKPGQPPKLLIYDASKLASGVPSRFKASGSGTQFALTISDLECDDAATYYCVGGYPGSLNVFGGGTEVVVK
notes: Rabbit monoclonal IgG; also called antibody GEN-93-8-1

Columns and labels:
[1] = molecular target: T1, human Ly6E (native, in human tumor …); assay: cell-based or functional assay
[2] = molecular target: T2, cynomolgus monkey Ly6E (native, in …); assay: IHC on normal cynomolgus monkey tissues

Binder | EC50 (cell killing, CellTiter-Glo, HCC1569 X2 cells, 5 days) [1] [nM] | binding result [2]
B1 | 4 | –
B2 | – | binds
